Experimental data published in US20220323445A1, “REDUCING IMMUNOGENICITY TO PEGLOTICASE” (Horizon Therapeutics Ireland DAC, priority 2020, published 2022).

System: serum uric acid (sUA)
Assay: Serum uric acid (sUA) levels and sUA responders, open-label study of pegloticase with MTX (NCT03635957)
Assay type: in vivo, human
Experimental: The primary objective is to estimate the response rate during Month 6 (Weeks 20, 22, and 24), as measured by the sustained normalization of serum uric acid (SUA) to <6 mg/dL for at least 80% of the time during Month 6 in subjects receiving KXX with MTX.
The primary efficacy outcome endpoint is the sustained normalization of SUA to <6 mg/dL for at least 80% of the time during month 6 (weeks 20, 22, and 24) in subjects receiving KXX with MTX. This is slightly below the urate solubility threshold and this threshold has been the accepted standard for nearly all modern gout trials. Participants who achieve this endpoint were classified as “responders.” Serum uric acid (SUA) responders may also be defined as participants achieving and maintaining SUA <6 mg/dL for at least 80% of the time during Month 6 (Weeks 20, 22, and 24).
Blood samples may be collected prior to each pegloticase infusion for measurement of SUA levels using the Beckman Coulter AU System Uric Acid procedure. Participants were declared “non-responders” if there were SUA measures >6 mg/dL at 2 consecutive study visits beginning with the week 2 visit. […] If the SUA goal is not maintained before or at the 12-week mark, it was assumed that the participant had developed clinically relevant anti-pegloticase antibody and they received no further infusions. This assumption and subsequent discontinuation of pegloticase was consistent with the protocol of large phase III randomized controlled trials and the product label. A formal stopping rule was 2 occasions of SUA levels of greater than 6 mg/dL.
Clinical Chemistry—Blood samples were collected prior to each pegloticase infusion for measurement of SUA levels (primary efficacy parameter) using the Beckman Coulter AU System Uric Acid procedure. In this procedure uric acid is converted to hydrogen peroxide. Hydrogen peroxide reacts with reagent to produce a chromophore which is read bichromatically at 660/800 nm. The amount of dye formed is proportional to the uric acid concentration in the sample.
Serum samples for measurement of SUA levels were collected at the Screening Visit, the Week −4 Visit (prior to the first dose of MTX), and the Week −2 Visit during the MTX Run-in Period; within 48 hours prior to each pegloticase infusion and after the end of each pegloticase infusion prior to discharge from the site during the Pegloticase+IMM Period; at the non-infusion Week 52/End of Study/Early Termination Visits and at the Post Treatment 3 and 6 Month Follow-up Visits. Additional serum samples for SUA levels were collected at optional non-infusion (Frequent Sampling) Visits at Weeks 1 and 7. […] Subjects with SUA level >6 mg/dL at 2 consecutive visits beginning at Week 2 visit discontinued treatment, completed the End of Pegloticase Infusion Visit procedures within 2 weeks and continued the subject visits according to the protocol (without treatment).
Efficacy analyses were performed using the modified intention-to-treat (mITT) population, defined as all enrolled subjects who received ≥1 dose of pegloticase. The proportion of Month 6 responders was summarized, along with a 95% confidence interval for the proportion. The proportion of Month 3 and overall (Months 3 and 6 combined) responders was analyzed similarly.
A subject was declared a non-responder if the subject had SUA level >6 mg/dL at 2 consecutive study visits beginning with the Week 2 Visit. In addition, a subject who withdraws from study treatment for any reason after the first dose of pegloticase in the KXX+MTX Period and prior to Month 6 (for the primary endpoint) or Month 3 (for the secondary endpoint) was considered a non-responder if SUA values were not collected at the planned time points.
Patients were administered oral MTX (15 mg/week) and folate (1 mg/day) 4 weeks prior to the first pegloticase infusion (Day 1) and throughout the pegloticase treatment period. […]

[1] = Day 1 - Post-Infusion, Month 6 sUA Non-Responders
[2] = Day 1 - Post-Infusion, Month 6 sUA Responders
[3] = Day 1 - Post-Infusion, mITT, n=11
[4] = Early Termination Visit, Month 6 sUA Non-Responders
[5] = Early Termination Visit, mITT, n=3
[6] = End of Pegloticase Infusions Visit, Month 6 sUA Responders
[7] = End of Pegloticase Infusions Visit, mITT, n=2
[8] = Week 1, Month 6 sUA Non-Responders
[9] = Week 2 - Post-Infusion, Month 6 sUA Non-Responders
[10] = Week 2 - Post-Infusion, Month 6 sUA Responders
[11] = Week 2 - Post-Infusion, mITT, n=14

B1: pegloticase (protein)
chain: TYKKNDEVEFVRTGYGKDMIKVLHIQRDGKYHSIKEVATTVQLTLSSKKDYLHGDNSDVIPTDTIKNTVNVLAKFKGIKSIETFAVTICEHFLSSFKHVIRAQVYVEEVPWKRFEKNGVKHVHAFIYTPTGTHFCEVEQIRNGPPVIHSGIKDLKVLKTTQSGFEGFIKDQFTTLPEVKDRCFATQVYCKWRYHQGRDVDFEATWDTVRSIVLQKFAGPYDKGEYSPSVQKTLYDIQVLTLGQVPEIEDMEISLPNIHYLNIDMSKMGLINKEEVLLPLDNPYGKITGTVKRKLSSRL
modifications: monomethoxy PEG conjugated; Krystexxa Sequence
notes: covalent conjugate of uricase produced by a genetically modified strain of Escherichia coli and monomethoxypoly (ethylene glycol)
**Q.** With B1 as the molecule, how does the “sUA < 6 mg/dL, %” value [1] read?
**A.** (100%)

**Q.** And the “sUA Change from Baseline, Mean” value [1]?
**A.** -6.60 mg/dL

**Q.** And the “sUA Change from Baseline, Median” value [1]?
**A.** -7.20 mg/dL

**Q.** And the “sUA Observed, Mean” value [1]?
**A.** 2.13 mg/dL

**Q.** And the “sUA Observed, Median” value [1]?
**A.** 1.20 mg/dL

**Q.** What about the “sUA < 6 mg/dL, %” value [2] of the same molecule?
**A.** (100%)

**Q.** What about the “sUA Change from Baseline, Mean” value [2] of the same molecule?
**A.** -7.55 mg/dL

**Q.** And the “sUA Change from Baseline, Median” value [2]?
**A.** -7.50 mg/dL

**Q.** What about the “sUA Observed, Mean” value [2] of the same molecule?
**A.** 0.83 mg/dL

**Q.** What about the “sUA Observed, Median” value [2] of the same molecule?
**A.** 0.30 mg/dL

**Q.** What about the “sUA < 6 mg/dL, n (%)” value [3] of the same molecule?
**A.** 11 (100%)

**Q.** What about the “sUA Change from Baseline, Mean (SD)” value [3] of the same molecule?
**A.** −7.29 (2.254) mg/dL

**Q.** And the “sUA Change from Baseline, Median” value [3]?
**A.** -7.30 mg/dL

**Q.** And the “sUA Observed, Mean (SD)” value [3]?
**A.** 1.18 (1.417) mg/dL

**Q.** What about the “sUA Observed, Median” value [3] of the same molecule?
**A.** 0.30 mg/dL

**Q.** And the “sUA Change from Baseline, Mean” value [4]?
**A.** -0.57 mg/dL

**Q.** What about the “sUA Change from Baseline, Median” value [4] of the same molecule?
**A.** -0.20 mg/dL

**Q.** And the “sUA Observed, Mean” value [4]?
**A.** 8.17 mg/dL

**Q.** And the “sUA Observed, Median” value [4]?
**A.** 8.20 mg/dL

**Q.** And the “sUA < 6 mg/dL, n (%)” value [5]?
**A.** 0%

**Q.** And the “sUA Change from Baseline, Mean (SD)” value [5]?
**A.** −0.57 (0.635) mg/dL

**Q.** And the “sUA Change from Baseline, Median” value [5]?
**A.** -0.20 mg/dL

**Q.** And the “sUA Observed, Mean (SD)” value [5]?
**A.** 8.17 (0.058) mg/dL

**Q.** And the “sUA Observed, Median” value [5]?
**A.** 8.20 mg/dL

**Q.** And the “sUA < 6 mg/dL, %” value [6]?
**A.** (100%)

**Q.** And the “sUA Change from Baseline, Mean” value [6]?
**A.** -8.50 mg/dL

**Q.** And the “sUA Change from Baseline, Median” value [6]?
**A.** -8.50 mg/dL

**Q.** And the “sUA Observed, Mean” value [6]?
**A.** 0.30 mg/dL

**Q.** What about the “sUA Observed, Median” value [6] of the same molecule?
**A.** 0.30 mg/dL

**Q.** And the “sUA < 6 mg/dL, n (%)” value [7]?
**A.** 2 (100%)

**Q.** What about the “sUA Change from Baseline, Mean (SD)” value [7] of the same molecule?
**A.** −8.50 (1.556) mg/dL

**Q.** What about the “sUA Change from Baseline, Median” value [7] of the same molecule?
**A.** -8.50 mg/dL

**Q.** And the “sUA Observed, Mean (SD)” value [7]?
**A.** 0.30 (0.000) mg/dL

**Q.** What about the “sUA Observed, Median” value [7] of the same molecule?
**A.** 0.30 mg/dL

**Q.** And the “sUA < 6 mg/dL, %” value [8]?
**A.** (100%)

**Q.** And the “sUA Change from Baseline, Mean” value [8]?
**A.** -8.10 mg/dL

**Q.** And the “sUA Change from Baseline, Median” value [8]?
**A.** -8.10 mg/dL

**Q.** What about the “sUA Observed, Mean” value [8] of the same molecule?
**A.** 0.30 mg/dL

**Q.** And the “sUA Observed, Median” value [8]?
**A.** 0.30 mg/dL

**Q.** What about the “sUA < 6 mg/dL, %” value (Week 1, Month 6 sUA Responders) of the same molecule?
**A.** (100%)

**Q.** And the “sUA Change from Baseline, Mean” value (Week 1, Month 6 sUA Responders)?
**A.** -6.88 mg/dL

**Q.** And the “sUA Change from Baseline, Median” value (Week 1, Month 6 sUA Responders)?
**A.** -7.15 mg/dL

**Q.** What about the “sUA Observed, Mean” value (Week 1, Month 6 sUA Responders) of the same molecule?
**A.** 0.30 mg/dL

**Q.** And the “sUA Observed, Median” value (Week 1, Month 6 sUA Responders)?
**A.** 0.30 mg/dL

**Q.** What about the “sUA < 6 mg/dL, n (%)” value (Week 1, mITT, n=6) of the same molecule?
**A.** 6 (100%)

**Q.** What about the “sUA Change from Baseline, Mean (SD)” value (Week 1, mITT, n=6) of the same molecule?
**A.** −7.28 (1.556) mg/dL

**Q.** What about the “sUA Change from Baseline, Median” value (Week 1, mITT, n=6) of the same molecule?
**A.** -7.75 mg/dL

**Q.** What about the “sUA Observed, Mean (SD)” value (Week 1, mITT, n=6) of the same molecule?
**A.** 0.30 (0.000) mg/dL

**Q.** And the “sUA Observed, Median” value (Week 1, mITT, n=6)?
**A.** 0.30 mg/dL

**Q.** What about the “sUA < 6 mg/dL, %” value [9] of the same molecule?
**A.** (100%)

**Q.** What about the “sUA Change from Baseline, Mean” value [9] of the same molecule?
**A.** -8.43 mg/dL

**Q.** What about the “sUA Change from Baseline, Median” value [9] of the same molecule?
**A.** -8.10 mg/dL

**Q.** And the “sUA Observed, Mean” value [9]?
**A.** 0.30 mg/dL

**Q.** And the “sUA Observed, Median” value [9]?
**A.** 0.30 mg/dL

**Q.** What about the “sUA < 6 mg/dL, %” value [10] of the same molecule?
**A.** (100%)

**Q.** What about the “sUA Change from Baseline, Mean” value [10] of the same molecule?
**A.** -8.97 mg/dL

**Q.** And the “sUA Change from Baseline, Median” value [10]?
**A.** -8.80 mg/dL

**Q.** What about the “sUA Observed, Mean” value [10] of the same molecule?
**A.** 0.30 mg/dL

**Q.** And the “sUA Observed, Median” value [10]?
**A.** 0.30 mg/dL

**Q.** And the “sUA < 6 mg/dL, n (%)” value [11]?
**A.** 14 (100%)

**Q.** And the “sUA Change from Baseline, Mean (SD)” value [11]?
**A.** −8.86 (2.486) mg/dL

**Q.** What about the “sUA Change from Baseline, Median” value [11] of the same molecule?
**A.** -8.70 mg/dL

**Q.** What about the “sUA Observed, Mean (SD)” value [11] of the same molecule?
**A.** 0.30 (0.000) mg/dL

**Q.** What about the “sUA Observed, Median” value [11] of the same molecule?
**A.** 0.30 mg/dL
